Earlier results, collected in patent US20050026224A1, “Methods and compositions for modulating G-protein coupled receptor 54” (priority 2003, published 2005).

Columns and labels:
cell motility [1] = settings: Hori et al. 2001
[2] = system: GPR54 transfected CHO cells; settings: GPR54 transfected CHO cells in vitro; Ohtaki et al. 2001
[3] = system: GPR54-transfected B16-BL6 melanomas; settings: GPR54-transfected B16-BL6 melanomas in vivo; Ohtaki et al. 2001
cell motility [4] = settings: Hori et al. 2001; remark: listed apart in the source
[5] = system: GPR54 transfected CHO cells; settings: GPR54 transfected CHO cells in vitro; Ohtaki et al. 2001; remark: listed apart in the source

B1: Metastin: peptide ligand agonist for GPR54; protein product of the Kiss-1 gene (SEQ ID NO: 4) (protein, listed as Homo sapiens)
chain: MNSLVSWQLLLFLCATHFGEPLEKVASVGNSRPTGQQLESLGLLAPGEQSLPCTERKPAATARLSRRGTSLSPPPESSGSRQQPGLSAPHSRQIPAPQGAVLVQREKDLPNYNWNSFGLRFGKREAAPGNHGRSAGRGWGAGAGQ
cell motility in a wound healing assay (cell motility [1]): suppress cell motility | invasion [2]: inhibits | pulmonary metastasis [3]: attenuates pulmonary metastasis | cell motility in a chemotaxis assay (cell motility [4]): suppress cell motility | chemotaxis [5]: inhibits chemotaxis
